Publication PMC12136191, “Structural basis for mTORC1 regulation by the CASTOR1-GATOR2 complex” (Research Square, 2025)

B1: CASTOR1 S111A/D304A (apo-locked mutant) (natural protein)
chain: MELHILEHRVRVLSVARPGLWLYTHPLIKLLFLPRRSRCKFFSLTETPEDYTLMVDEEGFKELPPSEFLQVAEATWLVLNVSSHSGAAVQAAGVTKIARSVIAPLAEHHVAVLMLSTYQTDFILVREQDLSVVIHTLAQEFDIYREVGGEPVPVTRDDSSNGFPRTQHGPSPTVHPIQSPQNRFCVLTLDPETLPAIATTLIDVLFYSHSTPKEAASSSPEPSSITFFAFSLIEGYISIVMDAETQKKFPSDLLLTSSSGELWRMVRIGGQPLGFDECGIVAQIAGPLAAADISAYYISTFNFAHALVPEDGIGSVIEVLQRRQEGLAS
notes: CASTOR1 (arginine sensor) with S111A and D304A; codon optimized synthetic DNA; Homodimer in the structure; also called CASTOR1^apo; 6X-His-CASTOR1^apo; source: E. coli BL21(DE3), pET-28a+, purified (Ni-NTA, Superdex 200 gel filtration)
B2: MIOS, subunit within purified GATOR2 (natural protein)
chain: MSGTKPDILWAPHHVDRFVVCDSELSLYHVESTVNSELKAGSLRLSEDSAATLLSINSDTPYMKCVAWYLNYDPECLLAVGQANGRVVLTSLGQDHNSKFKDLIGKEFVPKHARQCNTLAWNPLDSNWLAAGLDKHRADFSVLIWDICSKYTPDIVPMEKVKLSAGETETTLLVTKPLYELGQNDACLSLCWLPRDQKLLLAGMHRNLAIFDLRNTSQKMFVNTKAVQGVTVDPYFHDRVASFYEGQVAIWDLRKFEKPVLTLTEQPKPLTKVAWCPTRTGLLATLTRDSNIIRLYDMQHTPTPIGDETEPTIIERSVQPCDNYIASFAWHPTSQNRMIVVTPNRTMSDFTVFERISLAWSPITSLMWACGRHLYECTEEENDNSLEKDIATKMRLRALSRYGLDTEQVWRNHILAGNEDPQLKSLWYTLHFMKQYTEDMDQKSPGNKGSLVYAGIKSIVKSSLGMVESSRHNWSGLDKQSDIQNLNEERILALQLCGWIKKGTDVDVGPFLNSLVQEGEWERAAAVALFNLDIRRAIQILNEGASSEKGDLNLNVVAMALSGYTDEKNSLWREMCSTLRLQLNNPYLCVMFAFLTSETGSYDGVLYENKVAVRDRVAFACKFLSDTQLNRYIEKLTNEMKEAGNLEGILLTGLTKDGVDLMESYVDRTGDVQTASYCMLQGSPLDVLKDERVQYWIENYRNLLDAWRFWHKRAEFDIHRSKLDPSSKPLAQVFVSCNFCGKSISYSCSAVPHQGRGFSQYGVSGSPTKSKVTSCPGCRKPLPRCALCLINMGTPVSSCPGGTKSDEKVDLSKDKKLAQFNNWFTWCHNCRHGGHAGHMLSWFRDHAECPVSACTCKCMQLDTTGNLVPAETVQP
notes: MIOS, subunit of GATOR2; codon optimized synthetic DNA; The MIOS chain of m1, written alone for the pairs that touch in the structure; also called front face MIOS; source: HEK293-GNTI cells, co-expressed with the other GATOR2 subunits, purified as part of GATOR2

Key:
[1] = target: B2; experiment: cryo-EM structure; purified GATOR2 at 0.45 mg/mL with 3-fold molar excess of CASTOR1^apo, 45 minutes on ice, frozen on grids; no Arg; Titan Krios; details: both partners purified
[2] = target: the molecule itself; experiment: as above

Row | binding result [1] | Binder | binding result [2]
1 | binds | B1 | binds
2 |  | B2 | binds
